{
  "source": "paper PMC5940392",
  "about": "(Oncotarget, 2018)",
  "binders": {"B1": {"name": "GFI1B (natural protein)", "chain": "not shown", "notes": "GFI1B, human, UniProtKB Q5VTD9; source: endogenous, HEL whole-cell lysate"}},
  "target": "Lysine-specific demethylase 1 (human (endogenous in HEL), UniProt O60341 1-852)",
  "experiment": "affinity purification with mass spectrometry; LSD1-IP from HEL cells treated with NCD38 or DMSO; label-free quantification (Progenesis QI); binding rate change = normalized abundance in NCD38-treated cells divided by that in DMSO-treated cells, normalized to LSD1",
  "details": "partners not purified",
  "data": [
    {"binder": "B1", "values": [
      {"measurement": "binding rate after NCD38 relative to DMSO", "result": 27, "unit": "%"}
    ]}
  ]
}
